Where “and” joins values, the source holds several entries; their conditions need not be identical. Equal values may be shown once.
B1: Class II ADH: human liver Class II alcohol dehydrogenase (protein, UniProt P08319 1-380, looked up)
All-trans-retinol …: MGTKGKVIKCKAAIAWEAGKPLCIEEVEVAPPKAHEVRIQIIATSLCHTDATVIDSKFEGLAFPVIVGHEAAGIVESIGPGVTNVKPGDKVIPLYAPLCRKCKFCLSPLTNLCGKISNLKSPASDQQLMEDKTSRFTCKGKPVYHFFGTSTFSQYTVVSDINLAKIDDDANLERVCLLGCGFSTGYGAAINNAKVTPGSTCAVFGLGGVGLSAVMGCKAAGASRIIGIDINSEKFVKAKALGATDCLNPRDLHKPIQEVIIELTKGGVDFALDCAGGSETMKAALDCTTAGWGSCTFIGVAAGSKGLTIFPEELIIGRTINGTFFGGWKSVDSIPKLVTDYKNKKFNLDALVTHTLPFDKISEAFDLMNQGKSVRTILIF
B2: β1 β1: Class I human ADH isozyme, β1 homodimer (protein, UniProt P00325 2-375, looked up)
All-trans-retinol …: STAGKVIKCKAAVLWEVKKPFSIEDVEVAPPKAYEVRIKMVAVGICHTDDHVVSGNLVTPLPVILGHEAAGIVESVGEGVTTVKPGDKVIPLFTPQCGKCRVCKNPESNYCLKNDLGNPRGTLQDGTRRFTCRGKPIHHFLGTSTFSQYTVVDENAVAKIDAASPLEKVCLIGCGFSTGYGSAVNVAKVTPGSTCAVFGLGGVGLSAVMGCKAAGAARIIAVDINKDKFAKAKELGATECINPQDYKKPIQEVLKEMTDGGVDFSFEVIGRLDTMMASLLCCHEACGTSVIVGVPPASQNLSINPMLLLTGRTWKGAVYGGFKSKEGIPKLVADFMAKKFSLDALITHVLPFEKINEGFDLLHSGKSIRTVLTF
modifications: homodimer
notes: Class I human ADH isozyme, β1 homodimer
B3: γ1γ1: Class I human ADH isozyme, γ1 homodimer (protein, UniProt P00326 2-375, looked up)
Alcohol dehydrogenase 1C: STAGKVIKCKAAVLWELKKPFSIEEVEVAPPKAHEVRIKMVAAGICRSDEHVVSGNLVTPLPVILGHEAAGIVESVGEGVTTVKPGDKVIPLFTPQCGKCRICKNPESNYCLKNDLGNPRGTLQDGTRRFTCSGKPIHHFVGVSTFSQYTVVDENAVAKIDAASPLEKVCLIGCGFSTGYGSAVKVAKVTPGSTCAVFGLGGVGLSVVMGCKAAGAARIIAVDINKDKFAKAKELGATECINPQDYKKPIQEVLKEMTDGGVDFSFEVIGRLDTMMASLLCCHEACGTSVIVGVPPDSQNLSINPMLLLTGRTWKGAIFGGFKSKESVPKLVADFMAKKFSLDALITNILPFEKINEGFDLLRSGKSIRTVLTF
modifications: homodimer
notes: Class I human ADH isozyme, γ1 homodimer

Columns and labels:
[1] = molecular target: ADH in human serum (Class II) (Homo sapiens, UniProt P08319); test: Fluorometric measurement of serum ADH activity with substrate IIA; type: biochemical; details: Class II, substrate IIA
Protocol: All reaction mixtures (3 ml total volume) were prepared directly in 1 cm pathlength, 4 ml fluorometric cuvettes by adding 150 μl of the 300 μM substrate solution (e.g substrate IA or IIA) 100 μl of the 1 mM NADH solution (prepared as in part 5 above) and 2.69 ml of assay buffer (0.1M phosphate, pH 7.6). After thermal equilibration (25° C.) for 5 minutes, 60 μl of isozyme sample (either serum or purified ADH isozymes) was added to the cuvette.
The linear increase of fluorescence was then recorded for 1-10 minutes, until 0.03-1 μM of substrate was consumed. Larger substrate consumption was not found to be desirable (described in subpart (c) below). […] The added product fluorescence intensity was then measured Fluorescence measurements were optimized for samples with low activity (<1 nM/minute). […] Rates measured in the presence of the 0.2 mM ADH inhibitors. […]
The rates of aldehyde reduction, determined as initial velocities (V) and expressed in units of nM/minute, were calculated according to: [formula] where the quantity in parentheses is the slope of the linear fluorescence increase calculated from the quantities Ft and FO, the fluorescence at time t and at the beginning of the reaction, respectively. Cst is the concentration of the product used as a standard added to the cuvette after the initial rate had been measured and Fst is the fluorescence intensity of the added product […]

[2] = Reconstitution of purified ADH in inactive diluted human serum, substrate IIA; type: biochemical; details: Class II, 50-fold diluted serum, listed as II
Protocol: The ADH isozymes employed were electrophoretically homogeneous with symmetrical HPLC elution profiles and had the highest constant specific activity. Their activity was established both by the standard A340 assay using ethanol and using substrates IA and IIA under conditions described herein, but in the absence of serum.
After the residual background reaction was recorded, a purified ADH isozyme prepared as described in Example 1 was then added and the rate measured as described in part 8 of Example 1. All measurements were made in triplicate.

[3] = Specific activity of purified ADH isozymes in ethanol oxidation assay; type: biochemical
Excerpt: The isozymes used as primary standards were homogeneous based on SDS-polyacrylamide, urea-polyacrylamide and starch gel electrophoresis as described above. […] Using ethanol as substrate in a conventional ADH assay as described in part 8 of this Example, the specific activity of each purified ADH isozyme was established by monitoring NADH production by the change in absorbance at 340 nm on a Cary 219 spectrophotometer calibrated with potassium chromate absorbance standards (Fisher Chem. Co., Medford, MA) The activity of the purified ADH Class I isozymes were also assayed according to methods of the present invention (Examples 1 (part 8), 2 and 4).
A modification of the procedure of Ditlow et al., 1984, Biochemistry 23:6363-68, was used to purify Class II ADH from human livers proceeding from the preparation of Class I isozymes as described in subpart (a) above. The effluent of the CapGapp column obtained during the loading and binding of Class I was concentrated to about 200 ml in an Amicon concentrator with a PM.30 membrane and dialyzed 16 hours against 10 liters of 10 mM potassium phosphate, 0.1 mM DTT, pH 7.4 containing 10 μM octanal. The sample was applied to a column (3×5 cm) of agarose-AMP affinity resin at a flow rate of 0.5 ml/minute followed by washing of the column with 200 ml of the dialysis buffer. The bound enzyme was eluted with 150 ml of the dialysis buffer with a gradient of NADH from 0 to 66 μg/ml.
Standard assays for ethanol oxidation activity (Dalziel, 1957, Acta Chem Scand 11:1706-23) were carried out on a Cary 219 spectrophotometer interfaced with an Apple IIe microcomputer, using software provided by Varian Associates. The reaction mixture contained 2.5 mM NAD^+ in 0.1M glycine-NaOH buffer. pH 10.0, and 33 mM or 0.2M ethanol for Class I and Class II ADH, respectively.

[4] = Effect of storage conditions and time on ADH activity in serum; type: physicochemical, human
Protocol: Fresh serum samples were obtained from the Clinical Chemistry Laboratory at Brigham and Women's Hospital, Boston, Mass. All serum measurements reported herein were performed within 5 hours of phlebotomy unless otherwise indicated On storage there is considerable variation in the ADH activity of serum samples from the same and different patients. FIGS. 5A and 5B show the effect of storage at 4° C. (closed circles) and room temperature (closed squares) in a typical serum sample, using substrate IA (FIG. 5A) and substrate IIA (FIG. 5B) as measured by the four-assay procedure of Example 4.

| Molecule | limit of detection as isozyme concentration [1] | Recovery [2] | specific activity ([3]; purified Class II ADH) | Average Activity Retained ([4]; 4 °C, 2 days) | Average Activity Retained ([4]; 23 °C, 1 day) | Average Activity Retained ([4]; 23 °C, 2 days) | stability of activity in serum ([4]; -70° C.) | Average Activity Retained ([4]; -70 °C, 30 days) | half-life of ADH activity in sera ([4]; room temperature) | specific activity ([3]; ethanol oxidation, pH 10) |
| --- | --- | --- | --- | --- | --- | --- | --- | --- | --- | --- |
| B1 | 0.17 nM | 82.0% and 83.4% and 85.9% and 81.3% | 1.5 U/mg | 55% | 66% | 51% | at least one month | 100% | a few hours to >3 days |  |
| B2 |  |  |  |  |  |  |  |  |  | 0.42 U/mg |
| B3 |  |  |  |  |  |  |  |  |  | 4.4 U/mg |
